Experimental data published in US20070248613A1 (MERCK, published 2007).
Where “and” joins values, the source holds several entries; their conditions need not be identical. Equal values may be shown once.

Tests used:
[1] = target: T1, 5-Helix (HIV-1); experiment: SPR (Biacore)
T1 construct: also called HIV-1 gp41-derived 5-Helix; biotinylated 5-Helix

[2] = target: T2, gp41 of the HIV-1 HXB2 envelope (HIV-1 strain HXB2, UniProt P04578 512-856); experiment: cell-based or functional assay
[3] = target: T2, gp41 of the HIV-1 HXB2 envelope; experiment: cell-based or functional assay; remark: listed apart in the source
[4] = target: gp41 of the HIV-1 BaL envelope (HIV-1 strain BaL); experiment: cell-based or functional assay
[5] = target: gp41 of the HIV-1 89.6 envelope (HIV-1 strain 89.6); experiment: cell-based or functional assay
[6] = target: gp41 of the HIV-1 MN-1 envelope (HIV-1 strain MN-1, UniProt P05877 514-856); experiment: cell-based or functional assay
[7] = target: gp41 of the HIV-1 NL4-3 envelope (HIV-1 strain NL4-3); experiment: cell-based or functional assay
[8] = target: gp41 of the HIV-1 BaL envelope (HIV-1 strain BaL); experiment: cell-based or functional assay; remark: listed apart in the source
[9] = target: T1, 5-Helix; experiment: phage ELISA on biotinylated peptide captured on streptavidin plates

B1: D5 IgG (antibody, V domains shown)
VH: QVQLVQSGAEVRKPGASVKVSCKASGDTFSSYAISWVRQAPGQGLEWMGGIIPIFGTANYAQKFQGRVTITADESTSTAYMELSSLRSEDTAIYYCARDNPTLLGSDYWGKGTLVTVSS
VL: DIQMTQSPSTLSASIGDRVTITCRASEGIYHWLAWYQQKPGKAPKLLIYKASSLASGAPSRFSGSGSGTDFTLTISSLQPDDFATYYCQQYSNYPLTFGGGTKLEIK
notes: also called D5 IgG4; D5 antibody
[1]
  Kd: 0.26 nM
  koff: 0.0001 s⁻¹
  kon: 390000 M⁻¹ s⁻¹
[2]
  IC50, single cycle infectivity assay against HIV-HXB2: 261 nM
[3]
  D5 IgG IC50 (nM), single cycle infectivity assay: 310 nM
[4]
  D5 IgG IC50 (nM), single cycle infectivity assay: 93 nM
[5]
  D5 IgG IC50 (nM), single cycle infectivity assay: 1750 nM
[6]
  D5 IgG IC50 (nM), single cycle infectivity assay: 393 nM
[7]
  D5 IgG IC50 (nM), single cycle infectivity assay: 226 nM

B2: 5H/I1-BMV-D5 scFv (scFv)
scFv: QVQLVQSGAEVRKPGASVKVSCKASGDTFSSYAISWVRQAPGQGLEWMGGIIPIFGTANYAQKFQGRVTITADESTSTAYMELSSLRSEDTAIYYCARDNPTLLGSDYWGKGTLVTVSSGGGGSGGGGSGGGGSDIQMTQSPSTLSASIGDRVTITCRASEGIYHWLAWYQQKPGKAPKLLIYKASSLASGAPSRFSGSGSGTDFTLTISSLQPDDFATYYCQQYSNYPLTFGGGTKLEIK
notes: also called scFv D5
[2]
  IC50 (printed TC50), single cycle infectivity assay against HIV-HXB2: 238 nM
  IC50, single cycle infectivity assay: 320 nM and 8 ug/ml
[8]
  IC50, single cycle infectivity assay: 600 nM and 15 ug/ml
[9]
  binding result: binds

B3: 5H/I1-BMV-B11 scFv (scFv)
scFv: QVQLVQSGAEVKKPGSSVKVSCKASGGTFSSYAISWVRQAPGQGLEWMGGIIPLFDTSNYAQNFQGRITITADKSTSTAYMELSSLRFEDTAIYYCARDNPLLLAMDVWGKGTTVTVSSGGGGSGGGGSGGGGSDIQMTQSPSTLSASIGDRVTITCRASEGIYHWLAWYQQKPGKAPKLLIYKASSLASGAPSRFSGSGSGTDFTLTISSLQPDDFATYYCQQYSNYPLTFGGGTKLEIK
notes: also called scFv B11
[9]
  binding result: binds
